Test results published in publication PMC9723635.

Assays:
RBPMS-A WT [1] = assay: EMSA; conditions: apparent Kd, Hill fit; tRNA and heparin present; EMSA: 50 mM HEPES pH 7.2-7.9, 15 mM MgCl2, 25% glycerol, 5 mM DTT, 45 mM KCl, 5 ug tRNA, 20 fmol RNA, 25 min at 30 C, then 5 ug heparin 5 min at 30 C; 4% …
[2] = biological target: recombinant wild-type RBPMS-A (RNA Binding Protein with Multiple Splicing, canonical isoform A) (UniProt Q93062); assay: AUC; sedimentation velocity, interference data, 40 000 rpm, 20°C, overnight; protein at 0.5 mg/ml in 20 mM HEPES, 500 mM KCl, 1 mM TCEP, pH 7.9; c(s) distributions by SEDFIT; self-association into dimers and higher-order oligomers
RBPMS-A WT [3] = assay: UV crosslinking; conditions: 4 uM protein, EMSA: 50 mM HEPES pH 7.2-7.9, 15 mM MgCl2, 25% glycerol, 5 mM DTT, 45 mM KCl, 5 ug tRNA, 20 fmol RNA, 25 min at 30 C, then 5 ug heparin 5 min at 30 C
[4] = biological target: recombinant RBPMS-A T/A (double mutant T113A and T118A) (UniProt Q93062); assay: AUC; sedimentation velocity, interference data, 40 000 rpm, 20°C, overnight; protein at 0.5 mg/ml in 20 mM HEPES, 500 mM KCl, 1 mM TCEP, pH 7.9; c(s) distributions by SEDFIT; self-association into dimers and higher-order oligomers
[5] = biological target: truncated RBPMS-A T/E (amino acids 1-122, T113E and T118E), the sample used for NMR (UniProt Q93062); assay: SEC-MALS; 50 μl at ~2 mg/ml on Superdex 75 10/300 GL increase, 10 mM HEPES pH 6.8, 50 mM KCl, 0.5 ml/min; self-association (dimer)

With “Tpm1 exon 3 upstream intron EMSA RNA (three tandem CAC motifs)” the Kd (RBPMS-A WT [1]) was 213 nM.
Work on “recombinant wild-type RBPMS-A (RNA Binding Protein with Multiple Splicing, canonical isoform A) (from UniProt Q93062 2-196) (natural protein)” yielded a stoichiometry N [2] of 2.
Work on Tpm1 UV-crosslinking RNA yielded a binding signal (% (reference)) (RBPMS-A WT [3]; no nuclear extract) of 100 and a binding signal (% (reference)) (RBPMS-A WT [3]; with 20% HeLa nuclear extract) of 100.
“recombinant RBPMS-A T/A (double mutant T113A and T118A) (from UniProt Q93062 2-196) (natural protein)” was tested, and the stoichiometry N [4] was 2.
With “truncated RBPMS-A T/E (amino acids 1-122, T113E and T118E), the sample used for NMR (from UniProt Q93062 1-122) (domain or fragment)” the stoichiometry N [5] was 2.
